Key:
[1] = target: T1, recombinant GRP78 ATPase domain (Homo sapiens, UniProt P11021); assay: NMR binding to recombinant GRP78 ATPase domain
T1 construct: NMR studies with a recombinant GRP78 ATPase domain

A549 = assay: Tumor cell proliferation, A549; assay type: cell-based; details: A549, 72 hours
Method: (§1) Cell Proliferation Assay. The effect of rK5 and rK5 peptides on endothelial cells were assessed using a proliferation assay with 1% BSA and 3 ng/ml bFGF in serum-free media. Relative cell numbers in each well of a 96 well microplate after incubation for 72 hours in the absence or presence of inhibitors were determined by using the AQueous cell proliferation assay (Promega, San Luis Obispo, Calif.). For all other cell lines tested for proliferation, minimal growth media was used (Cao, Y., Ji, R., Davidson, D., Schaller, J., Marti, D., Sohndel, S., McCance, S., O'Reilly, M., Llinas, M., and Folkman, J. Kringle domains of human angiostatin. Characterization of the anti-proliferative activity on endothelial cells. (1996) J. Biol. Chem. 271, 29461-29467). Results are presented as the percent inhibition of control cell (bFGF-induced) proliferation.

[2] = target: T2, recombinant human GRP78 (rGRP78) (Homo sapiens, UniProt P11021); assay: Equilibrium dialysis of rGRP78 and 3HK5; assay type: binding; details: competition dialysis, 2 nM GRP78 and 2 nM 3HK5; mutant up to 25-fold excess of GRP78
T2 construct: host or cells: yeast
T2 sequence (P11021 19-654): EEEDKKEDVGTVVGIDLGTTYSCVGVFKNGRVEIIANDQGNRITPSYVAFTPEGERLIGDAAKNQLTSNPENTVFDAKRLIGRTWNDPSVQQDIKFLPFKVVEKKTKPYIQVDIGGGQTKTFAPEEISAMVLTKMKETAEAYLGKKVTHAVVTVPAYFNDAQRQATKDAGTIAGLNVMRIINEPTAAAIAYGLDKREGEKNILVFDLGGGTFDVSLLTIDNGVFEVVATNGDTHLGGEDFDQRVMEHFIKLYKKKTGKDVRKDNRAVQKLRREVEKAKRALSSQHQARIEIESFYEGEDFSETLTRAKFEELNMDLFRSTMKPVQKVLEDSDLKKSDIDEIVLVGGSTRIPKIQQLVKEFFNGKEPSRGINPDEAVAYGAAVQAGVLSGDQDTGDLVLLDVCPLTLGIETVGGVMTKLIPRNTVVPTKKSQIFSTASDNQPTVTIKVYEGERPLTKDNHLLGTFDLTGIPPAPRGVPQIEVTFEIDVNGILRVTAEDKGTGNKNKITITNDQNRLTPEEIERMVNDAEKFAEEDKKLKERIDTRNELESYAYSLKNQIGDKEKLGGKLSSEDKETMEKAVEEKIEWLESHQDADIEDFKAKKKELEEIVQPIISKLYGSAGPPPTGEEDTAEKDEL
Method: FIG. 14A is a graph showing equilibrium dialysis of recombinant GRP78 (rGRP78) and ^3HK5. ^3HK5 was added to one side of an equilibrium chamber at concentrations from 0.1 to 3 nM. 2 nM GRP78 was added to the other side of the chamber with a […] mwco filter between. ^3HK5 was allowed to equilibrate to both side of the chamber for 72 hours at room temperature. The amount of ^3HK5 on the GRP78 side of the chamber was compared to chamber with ^3HK5 alone to obtain the bound verses free rK5 distribution.
FIG. 14B is a graph showing competition binding dialysis rGRP78 and ^3HK5. Experiments were performed with 2 nM GRP78 and 2 nM ^3HK5 using rK5(K82A) mutant and unlabeled rK5 at various concentrations from 0.5 to 50 nM. The amount of ^3HK5 on both sides of the chamber was measured after 72 hours and compared to the control.
Binding of rK5 to rGRP78 was measured using equilibrium dialysis (Kariv I, Cao H, Oldenburg K R. Development of a high throughput equilibrium dialysis method. J Pharm Sci. 2001 May; 90(5):580-87). In the top well of a 96 well equilibrium dialyzer (molecular weight cut off 50K Daltons, Harvard Apparatus, Holliston, M A) 150 μl of 10 nM rGRP78 was added. In the reciprocal (bottom) chamber, 150 μl of increasing concentrations from 0.1 to 50 nM ^3HK5 was added. The chambers were shaken at room temperature for 72 hours. […]

P388 = assay: Tumor cell proliferation, P388; assay type: cell-based; details: P388, 72 hours
Method: as §1

Lewis Lung Carcinoma = assay: Tumor cell proliferation, Lewis Lung Carcinoma; assay type: cell-based; details: 72 hours
Method: as §1

endothelial cells = assay: Binding of labeled K5 to endothelial cells (Scatchard); design: species or system human; details: stimulated vs starved cells
Text: FIG. 10A is a graph showing the amount of surface expressed GRP78 on endothelial cells compared to rK5 binding. For all the assays in this figure, 50,000 cells were attached to 96 well plates. Human rK5 potency is highly dependent on the extent of iodination because it contains a readily iodinated tyrosine in its binding sequence. […] However dog K5 has a phenylalanine in this position naturally and is folded and active in these assays. Accordingly ^125IrK5 (dog) was used as a reagent. ^125IrK5 (dog) was added to the wells and incubated at room temperature for 1 hour. After 1 hour the cells were washed and the amount of I^125IrK5 (dog) bound was counted.
FIG. 11 is a graph comparing the binding of rK5 to starved, quiescent endothelial cells with that of endothelial cells stimulated by VEGF/bFGF. […] The number of counts remaining bound to the cells after extensive washing determined total amount of rK5 bound.
Binding of human ^125IrK5 to Endothelial Cells: Tritium-labeled rK5 was added to monolayers of 50,000 HMVEC cells that were either starved or stimulated for 16 hours by 15 ng/ml bFGF and 5 ng/ml VEGF in 96 well plates. […] After 1 hour the cells were washed and lysed with M-Per (Pierce, Racine, Wis.) and the amount of ^125IK5 (dog) bound was counted. […] Cells were washed and the amount of bound ^125IK5 (dog) bound was counted. […]

D54 = assay: Tumor cell proliferation, D54; assay type: cell-based, human; details: D54, 72 hours
Method: as §1

T1 sequence (P11021 19-408): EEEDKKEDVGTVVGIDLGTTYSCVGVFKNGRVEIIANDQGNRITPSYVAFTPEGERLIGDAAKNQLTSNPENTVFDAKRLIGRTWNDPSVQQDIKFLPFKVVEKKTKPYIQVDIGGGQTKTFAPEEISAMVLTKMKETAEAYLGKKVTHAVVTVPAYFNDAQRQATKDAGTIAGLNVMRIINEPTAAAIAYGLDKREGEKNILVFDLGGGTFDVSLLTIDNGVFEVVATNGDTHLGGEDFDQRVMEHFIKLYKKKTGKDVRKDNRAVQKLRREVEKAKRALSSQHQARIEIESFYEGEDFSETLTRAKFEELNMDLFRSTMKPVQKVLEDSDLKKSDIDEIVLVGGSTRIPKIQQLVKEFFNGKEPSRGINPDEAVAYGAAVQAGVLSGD

B1: rK5: recombinant kringle 5 fragment of human plasminogen (residues 450-543), expressed in E. coli or yeast (protein)
chain: LLPDVETPSEEDCMFGNGKGYRGKRATTVTGTPCQDWAAQEPHRHSIFTPETNPRAGLEKNYCRNPDGDVGGPWCYTTNPRKLYDYCDVPQCAA
binding with the ATPase domain of GRP78 (NMR) [1]: direct binding | IC50 values for cell proliferation (A549): >100 µg/mL | blocking of 3HK5 binding to rGRP78 [2]: blocked | IC50 values for cell proliferation (P388): >100 µg/mL | IC50 values for cell proliferation (Lewis Lung Carcinoma): >100 µg/mL | binding to stimulated endothelial cells upregulated as compared to starved cells (endothelial cells): 4-10 fold | IC50 values for cell proliferation (D54): >100 µg/mL

Source: US20050053993A1, “Uses of an endothelial cell receptor” (priority 2002, published 2005)
